B1: human CD83 murine Ig fusion protein (human CD83 extracellular domain upstream of the murine IgG2a Fc domain) (Fc fusion)
chain: MSRGLQLLLLSCAYSLAPATPEVKVACSEDVDLPCTAPWDPQVPYTVSWVKLLEGGEERMETPQEDHLRGQHYHQKGQNGSFDAPNERPYSLKIRNTTSCNSGTYRCTLQDPDGQRNLSGKVILRVTGCPAQRKEETFKKYRAERSEPRGPTIKPCPPCKCPAPNSAGTSSVFIFPPKIKDVLMISLSPIVTCVVVDVSEDDPDVQISWFVNNVEVHTAQTQTHREDYNSTLRVVSALPIQHQDWMSGKEFKCKVNNKDLPAPIERTISKPKGSVRAPQVYVLPPPEEEMTKKQVTLTCMVTDFMPEDIYVEWTNNGKTELNYKNTEPVLDSDGSYFMYSKLRVEKKNWVERNSYSCSVVHEGLHNHHTTKSFSRTPGK

Experiments:
[1] = biological target: ligand(s) that bind to CD83, on mouse cells (PBMC monocytes, lymph node lymphocytes, splenocytes); assay: flow cytometry on mouse lymph node lymphocytes
[2] = biological target: ligand(s) that bind to CD83, on mouse cells (PBMC monocytes, lymph node lymphocytes, splenocytes); assay: flow cytometry on mouse splenocytes
[3] = biological target: ligand(s) that bind to CD83, on human peripheral blood cells (monocytes, some lymphocytes); assay: flow cytometry on fresh human PBMC, biotinylated CD83Ig + PE streptavidin
[4] = biological target: ligand(s) that bind to CD83, on mouse cells (PBMC monocytes, lymph node lymphocytes, splenocytes); assay: flow cytometry on mouse PBMC

Row | Molecule | percent of cells bound (lymphocytes from lymph nodes) [1] | percent of cells bound (non-T cell population of splenocytes) [2] | percent of cells bound (CD3+ cells, lymphocyte gate) [3] | percent of cells bound (CD3- cells, lymphocyte gate) [3] | percent of cells bound (larger cell scatter gate, monocytes) [3] | percent of cells bound (monocytes in peripheral blood) [4]
1 | human CD83-hIgG1 fusion protein (extracytoplasmic domain of human CD83 with a human IgG1 tail) (Fc fusion) | < 5% | 15% | < 1% | 4% | > 75% | 90%
2 | B1 | < 5% | 15% | – | – | – | 90%

— patent publication US20030219436A1
